Target: Hepatitis B patients' plasma-derived HBsAg particles (HBV surface antigen, subviral particle of HBV)
Assay: AlphaScreen
Settings: parent: est. 1.3; read off a plot

Question: With “Myr47 lipopeptide (HBV pre-S1 domain, myristoylated 2–48 peptide), biotinylated Ala11–15” as the substance, how does the response read?
Answer: 1.4 RLU (×10^6)
